These results are taken from article PMC5418573.

Test [1] addresses recombinant PolB1 of Sulfolobus solfataricus (Sulfolobus solfataricus) (UniProt P26811). Put plainly: native MS; PolB1-HE complex at 4.2 μM in 50 mM ammonium acetate, nano ESI, Synapt G2S.
The target is the same in test [2].

Sequence of UniProt P26811 (P26811 36-882): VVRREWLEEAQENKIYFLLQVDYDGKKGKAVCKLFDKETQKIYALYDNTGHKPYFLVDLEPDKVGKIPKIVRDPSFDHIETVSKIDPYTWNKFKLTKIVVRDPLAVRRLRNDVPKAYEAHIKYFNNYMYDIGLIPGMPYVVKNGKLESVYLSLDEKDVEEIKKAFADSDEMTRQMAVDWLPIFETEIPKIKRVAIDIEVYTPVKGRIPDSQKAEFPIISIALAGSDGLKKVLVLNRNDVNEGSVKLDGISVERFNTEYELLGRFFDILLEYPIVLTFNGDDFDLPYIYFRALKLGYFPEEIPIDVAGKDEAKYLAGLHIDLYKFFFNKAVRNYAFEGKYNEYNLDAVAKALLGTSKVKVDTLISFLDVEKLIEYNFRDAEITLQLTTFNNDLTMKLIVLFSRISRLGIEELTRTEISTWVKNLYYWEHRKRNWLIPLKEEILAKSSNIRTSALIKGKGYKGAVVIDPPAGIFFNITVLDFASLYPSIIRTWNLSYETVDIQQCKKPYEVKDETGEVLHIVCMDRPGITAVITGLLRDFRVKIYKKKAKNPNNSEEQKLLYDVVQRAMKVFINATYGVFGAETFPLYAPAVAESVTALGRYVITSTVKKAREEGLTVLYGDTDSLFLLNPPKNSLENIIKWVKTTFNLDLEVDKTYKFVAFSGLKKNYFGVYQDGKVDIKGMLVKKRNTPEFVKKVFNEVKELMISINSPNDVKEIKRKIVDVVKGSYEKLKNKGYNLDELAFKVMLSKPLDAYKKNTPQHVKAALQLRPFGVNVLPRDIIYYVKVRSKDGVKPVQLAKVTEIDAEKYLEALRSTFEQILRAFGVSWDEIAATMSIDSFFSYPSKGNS

Take “recombinant PBP1 of Sulfolobus solfataricus (SSO0150) (from UniProt Q980X5 1-118) (natural protein)”: the stoichiometry N in test [1] was 1.

For “recombinant PBP2 of Sulfolobus solfataricus (SSO6202) (natural protein)”, the stoichiometry N in test [1] stood at 1.

For the substance “PBP1ΔC, PBP1 C-terminal tail deletion mutant (from UniProt Q980X5 1-78) (domain or fragment)”, the kinetics of excision of the 3′ nucleotide (dGMP) in test [2] is 6 fold.

What is called stoichiometry N is a count of units in the complex or per binding partner.
